The values below come from the nanobody polyreactivity screen of Harvey et al. (2022).

The data set can be described thus: yeast display, Sf9 membrane polyspecificity reagent, FACS + sequencing; frameworks hold sequencing errors. An outline of the steps: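 Galactose-induced (36–48 hours) yeast carrying a synthetic nanobody display library were exposed to 10% biotinylated, detergent-solubilized Sf9 membrane reagent at 4 °C for 1 hour. FACS followed streptavidin microbead enrichment, using low and high (top ~1%) gates for expression (anti-HA) and reagent binding (streptavidin). Colony PCR, MiSeq 2 × 250 sequencing and CDR-length filtering followed. Labels for polyreactivity reflect the gate of origin.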
As to “QVQLVESGGGLVQAGGSLRLSCAASGRIFSYNAMGWYRQAPGKERELDAAISWSTGSTFYADSVKGRFTISRDNAKNTVYLQMNSLKPEDTAVYYCAREYYYRRGFFLRGYWGQGTQVTVSS”, the “polyreactivity (PSR sort gate)” value is “high polyreactivity”.

Turning to “QVQLVESGGGLVQAGGSLRLSCAASGSTFYANAMGWYRQAPGKERELVAAITRSGAGTYYADSVKGRFTISRDNAKNTVYLQMNSLKPEDTAVYYCNAGSSFWVSRIGYDYWGQGTQVTVSS”, the “polyreactivity (PSR sort gate)” value is recorded as “high polyreactivity”.

With “QVQLVESGGRLGQAGGSLRLRCAASGYNFGTYDMGWYRPAPGKERELVAAISIGGSTNYADSVKGRFTISRDNAKNTVYLQMNSLKPEDTAVYYCAAEVNVGTLLLSVIVEDGDYWGQGTEVTVSS”, the “polyreactivity (PSR sort gate)” value is “low polyreactivity”.

In the case of “QVQLVESGGGLVQAGGSLRLSCAASGSIFYIYALGWYRQAPGKERELVAAISRSGGRTYYADSVKGRFTISRDNAKNTVYLQMNSLKPEDTGVYYCAARRYTAYDYWGQGTQVTVSS”, the “polyreactivity (PSR sort gate)” value was “high polyreactivity”.

As for “QVQLVESGGGLVQAGGSLRLSCAASGITFSYNAMGWYRQAPGKERELVAAITWSGDSTYYADSVKGRFTISRDNAKNTVYLQMNSLKPEDTAVYYCNARYLRLRYPYTDEYNYWGQGTQVTVSS”, the “polyreactivity (PSR sort gate)” value is given as “low polyreactivity”.

With “QVQLVESGGGLVQAGGSLRLSCAASGSTFDGNAMGWYRQAPGTERELVAAITSGGSTNYADSVKGRFTISRDNAKNTVYLQMNSLKPEDTAVYYCAADTVSFSILYDYWGQGTQVTVSS”, the “polyreactivity (PSR sort gate)” value is “low polyreactivity”.

Take “QVQLVESGGGLVQAGGSLRLSCAASGRPFDSNAMGWYRQGPGKERELVAAISYGCGTTHYADSVKGRFTISRDNAKNTVYLQMNSLKPEDTAVYYCAADPELQWESVTIGEYDYWGQGTQVTVSS”: the “polyreactivity (PSR sort gate)” value is on record as “low polyreactivity”.

Turning to “QVQLVESCGGLVQAGGSLSLSCAASGSTFNHYAMGWYRQATGKEREFVAAISWSGGSTYYADYVQGRFTISRDNAKNTGYLQMNSLKPEDTAVYYCNAAVSQFSHRWRRRLTFDYWGQGTQVTVSS”, the “polyreactivity (PSR sort gate)” value is listed as “high polyreactivity”.

As for “QVQLVESGGGLVQAGGILRLSCAASGSIFNGYAMGWYRQSPGKERELVAAISWNGGSTYYADSVKGRFTISRDNAKNTFYLLMNSLKPEDTAVYYFAAGGYYDSRTYYYWGQGTQVSVSS”, the “polyreactivity (PSR sort gate)” value is on record as “high polyreactivity”.

For “QVQLVESGGGLVQAGGSLRLSCAASGRTFTFYTMGWYRQAPGKERELVAAITRSGGGTYYADSVKGRFTISRDNAKNTVYLQMNSLKPEDTAVYYCAAYNRNAFHWGQGTQVTVSS”, the “polyreactivity (PSR sort gate)” value is listed as “high polyreactivity”.

With “QVQLVESGGGLVQAGGSLRLSCAASGSTLASYAMGWYRQAPGKERELVAAISLSGGSTYYADSVKGRFTISRDNAKNTVYLQMNSLKPEDTAVYYCAAETVRYEWGESPAALFDYWGQGTQVTVSS”, the “polyreactivity (PSR sort gate)” value is “low polyreactivity”.

For “QDQLVESGGGLVQAGGSLRLSCAASGSIFYRNAMGWYRQAPGKERELVAAITRGGITNYADSVKGRFTISRDNAKNTVYLQMNSLKPEDTAVYYCPRVPGRTTQYDYWGQGTQVTVSS”, the “polyreactivity (PSR sort gate)” value was “low polyreactivity”.

For “QVQLVESGGGLVQAGGSLRLSCAASGSTFGFYAMGWYRQAPGKERELVAAITGGGSTNYADSVKGRFTISRDNAKNTVYLQMNSLNPEDTAVYYCAVVQRYWYPGIVPYDYWGQGTQVTVSS”, the “polyreactivity (PSR sort gate)” value was “high polyreactivity”.

For “QVQLVESGGGLVQAGGSLRLSCAASGSIFRGYAMGWYRQAPGKERELVAAITSSAGSTYYADSVKGRFTISRDNAKNTVYLQMNSLKPEDTAVYYCNKYPRASRRGFDYWGQGTQVTVSS”, the “polyreactivity (PSR sort gate)” value was “high polyreactivity”.

Turning to “QVQLVESGGGLVQAGGSLRLSCAASGSIFWWNTMGWYRQAPGKERELVAAITFSGGSTYYADSVKGRFTISRDNAKNTVYLQMNSLKPEDTAVYYCNADGWVSVRGTWSDGGYWGQGTQVTVSS”, the “polyreactivity (PSR sort gate)” value is listed as “low polyreactivity”.

In the case of “QVQLVESGGGLVQAGGSLRLSCAASGRTNRFYAMGWYRPAPGNERELVAAIRNGGRTNYADSVKGRFTIARDNAKNTVYLQMNSLKPEDTAVYSCAKQPGISYRHYDYWGQGPQVTVSS”, the “polyreactivity (PSR sort gate)” value is recorded as “high polyreactivity”.

As to “QVQLVESGGGLVQAGGSLRLSCAASGFTFRYNTMGGYRQAPGKERELVAAISSSGSSTYYADSVKGRFTISRDNAKNTVYLQMNSLKPEDTAVYYCNAVHRRTRYGYWGQGTQVTVSS”, the “polyreactivity (PSR sort gate)” value is “high polyreactivity”.

“QVQLVESGGGLVQAGGSLRLSCAASGRIFYYNDLGWYRQAPGKERELVAAISGSGGSTYYADSVKGRFTISRDNAKNTVYLQMNSLKPEDTAVYYCSYYYWGQGTQVTVSS”: the “polyreactivity (PSR sort gate)” value is “low polyreactivity”.

On to “QVQLVESGGGLVQAGGSLRLSCAASGSTLSYYAMGWYRPAPGKDRELVAAISFSGGITYYADSVKGRFTISRDNAKNTVYLQMNSLKPEDTAVYYCNAEYQVYRAYVIWYDYWGQGTQVTVSS”, for which the “polyreactivity (PSR sort gate)” value is given as “high polyreactivity”.

Turning to “QVQLVESGGGLVQAGGSLRLSCAASGLIFGSYVMGWYSQAPGKERELVAAISTSGGRTYYADSVKGRFTISRDNATNTVYLQMNSLKPEDTAVYFCAASRWHGYNYWGQGTQVTVSS”, the “polyreactivity (PSR sort gate)” value is listed as “high polyreactivity”.

As for “QVQLEESGGGLVQAGGSLRLSCAASGGTFDHYTMGWYRQAPGKERELVAAISRRSGRTYYADSVKGRFTISRDKAKNTVYLQMNSLKPEDTAVYYCNADGYTRAFDYWGQGTQVTVSS”, the “polyreactivity (PSR sort gate)” value is on record as “high polyreactivity”.

Turning to “QVQLVESGGGLVQAGGSLRLSCAASGSTLGRYAMGWYRQAPGKERELVASITWSDDSTYYADSVKGRFTISRDNAKNTVYLQMNSLKPEDTAVYYCNAPPGTFQWQGHSDYWGQGTQVTVSS”, the “polyreactivity (PSR sort gate)” value is “low polyreactivity”.

For “QVQLVESGGGLVQAGGSLRLSFAASGRTFYYYASRWYRQAPGKERELVARIRSGGSTNYADSVKGRFTISRDNAKNTFYLQMNSLKPEDTAVYYCNALGAKGYVKGFDYRGQGTQVTVSS”, the “polyreactivity (PSR sort gate)” value is “low polyreactivity”.

Consider “QVQLVESGGGLGQAGGSLRLSCAASGIIFQYYAMGWYRPAPGKERELVAVISSSGTNTYYADSVKGRFTISRDNAKNTVYLQMNSLKPEDTAVYYCNKVYRWFTRFDYWGQGTQVTVSS”, for which the “polyreactivity (PSR sort gate)” value was “high polyreactivity”.

Consider “QVQLVDSGGGLVQAGGRLRLSCAASGSTFGHNAMGWYRQAPGKERQLLAAISRSGGITYYADSVKGRFTISRDNAKNTVYLQLNSLKPEDTAVYYCAADAWFSLRYAPRSYAYGYWGQGTQVTVSS”, for which the “polyreactivity (PSR sort gate)” value was “low polyreactivity”.

“QVQLVESGGGLVQAGGSLRLSCSASGTTFRGYAMGWYRQAPGKEREVVAAISNNGVTTYYADSVKGRFTISRDNAKNTVYLQMNSLKPEDAAVYYCAAGLYHGFAASDEIRGDYWGLGTQVTVSS”: the “polyreactivity (PSR sort gate)” value is reported as “low polyreactivity”.

For “QVQHVESGGGLVQAGGSLRLSSAASGGTFNVYAMGWYRQAPGKESELVAAIRWSGGSTYYADSVKGRFTISRDNAKNTVYLQMNSLKPEDTAVYFCAARFYGRSQTYGSWGLGTQVTVSS”, the “polyreactivity (PSR sort gate)” value is reported as “high polyreactivity”.

With “QVQLVESGGGLVQAGGSLRLSCAASGSNFVYNAMGWYRQAPGKERELVAAISGSGDSTYYADSVKGRFTISRDNAKNTVYLQMNSLKPEDTAVYYCAARMSTADFYKGDYWGQGTQVTVSS”, the “polyreactivity (PSR sort gate)” value is on record as “low polyreactivity”.

As for “QVQLQESGGGLVQAGGSLRLSCAASGCISVYTPMGWYRQAPGKERVLVAGINICANTYYADSVKGRFTISRDNAKNTLYLQMNSLKPEDTAVYYCAARRRPGGRYKSRVWYDYWGQGTQVTVSS”, the “polyreactivity (PSR sort gate)” value is listed as “high polyreactivity”.

With “QVQLVESGGGLVQAGGSLRLSCAASGSIFEYYTMGWYRQAPGKERELVAGISWSGGSTYYADSVKGRFTISRDNAKNTVYLQMNSLKPEDTAVYYCAAGRTGWYWDSGSTYRYGYGYWGQGTQVTVSS”, the “polyreactivity (PSR sort gate)” value was “high polyreactivity”.
